From publication PMC2517623

Target: Crm1 (Xpo1) (UniProt P30822)
Experiment: biotin-peptide streptavidin pulldown, stained gel

Substance: Ace2 122-150 (from UniProt P21192) pS122 peptide
- binding against the reference (reference: unphosphorylated 122-150 peptide, sites S122): weaker

Substance: Ace2 122-150 (from UniProt P21192) pS122 peptide, λ-phosphatase treated
- binding against the reference (reference: pS122 peptide, untreated, sites S122): stronger

Substance: Ace2 122-150 (from UniProt P21192) pS137 peptide
- binding against the reference (reference: unphosphorylated 122-150 peptide, sites S137): weaker

Substance: Ace2 122-150 (from UniProt P21192) pS137 peptide, λ-phosphatase treated
- binding against the reference (reference: pS137 peptide, untreated, sites S137): stronger
